From the nanobody polyreactivity screen of Harvey et al. (2022)

Experiment: yeast display, Sf9 membrane polyspecificity reagent, FACS + sequencing; frameworks hold sequencing errors
In short: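 Polyreactivity labels are assigned by the sorting gate from which each nanobody was recovered. The gates were low and high (top ~1%), set on anti-HA fluorescence for expression and streptavidin fluorescence for reagent binding. Before sorting, galactose-induced (36–48 hours) yeast display cells were stained for 1 hour at 4 °C with 10% biotinylated, detergent-solubilized Sf9 membrane reagent.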

Row | Sequence | polyreactivity (PSR sort gate)
1 | QVQLVESGGGLVQAGGSLRLSCAASGRIFDGYVMGWYRQAPGKERELVAAISASGGSTYYADSVKGRFTISRDNAKNTVYLQMNSLKPEDTAVYYCATDALYGYDYWGQGTQVTVSS | high polyreactivity
2 | QVQLVESGGGLVQAGGSLRLSCAASGRTFTSNAMGWYRQAPGKERELVAAITQSGGSTYYADSVKGRFTISRDNAKNTVYLQMNSLKPEDTAVYYCNAETTGRTEYNYWGQGTQVTVSS | low polyreactivity
3 | QVQLVESGGGLVQAGGSLRLSCAASGRTFWRYAMGWYRQAPGKERELVATISSGGSTNYADSVKGRFTISRDNAKNTVYLQMNSLKPEDTAVYYCNAEYSYYDLLAYDYWGQGTQVTVSS | low polyreactivity
4 | QVQLVESGGGLVQAGGSLRLSCAASGIIFLYYAMGWYRQAPGKERELVAAISKSGGSTYYADSVKGRFTISRDNAKNTVYLQMNSLKPEDTAVYYCAARLWHLSYAGQGGDYWGQGTQVTVSS | low polyreactivity
5 | QVQLVESGGGLVQAGGSLRLSCAASGFTFDWNAMGWYRQAPGKERELVAAISSSTGRTYYADSVKGRFTISRDNAKNTVYLQMNSLKPEDTAVYYCAASLGGRAGNYWGQGTQVTVSS | high polyreactivity
6 | QVLLVESGGGLVQAGGSLRLSCAAWSIFYLNAMGWYRQAPGKERELVAAISSAGSTYYADSVKVRFTISRDNAKNTVYLQMNSLKPEDTAVYYCAAYWYDSPGVTEIWYDYWGQGTQVTVSS | low polyreactivity
7 | QVHLVESGGGLFQAGGRLRLSCAAAGSTFPKYARGWYRQAPGKERELVAAISWSGDSTNYADSVKGRITISRDNAKNTVYVQMNSLKPEDTAVYYCAAYNFIHAGPWEYDYWGQGTQVTVSS | low polyreactivity
8 | QVEHVESGGGLVQAGGSLRLSCAASGSIIVDNAMGWSRQAPGKDRELVAAISVGGGRTYYADSVKGRFTISRDNAKNTVYLQMNSLKPEDTAVYYCNRVPTRGPHGVWFGYCGQGTQVTVSS | high polyreactivity
9 | QVQLVESGGGLVQAGGSLSFSCAASGNTFYRNAMGWYSQAPGKERELVAAITFSTVRTYYADSVKGRFTISRDNAKNTVYLQMNSLKPEDTAVYYCNKLYRGTWAKENGYWGQGTQVTVSS | high polyreactivity
10 | QVQLVESGGGLVQAGGSLRLSCAASGSIFESNAMGWYRQAPGKERELVAAYADSVKGRFTISRDNAKNTVYLQMNSLKPEDTAVYYCAKSLSLYVVPLYEYWGQGTQVTVSS | low polyreactivity
11 | QVQLVESGGGLVQAGGSLRLSCAASGMTFSKYVMGWYRQAPGKERELVAAITWSGGRTYYADSVKGRFTISRDNAKNTVYLQMNSLKPEDTAVYYCNSKLKGLGYEYDYWGQGTQVTVSS | high polyreactivity
12 | QVQLVESGGGIVQAGGSLRLSCAASGRIFSVYAKGWTRQAPGKERELVAAISSGGTTYYADSVKGRFTNSRDNAKNTVYLLMNSQKPDDTAVYYFAASVYYYRYNYWGQGTQVTVSS | low polyreactivity
13 | QVQLVESGGGLVQAGGSLRLSCADSGSIFRSYDMGRYSQAPGKERELVAGISYSGGSTYYADSVKRRFTISRDNAKNTVYLQMNSLKPEDTAVYYCNVDGGTYFFFVGAWGEYDYWGQGTQVTVSS | low polyreactivity
14 | QEQLQESGSGLVQAGGSLRLSCAASGNIFQDWVMGWYRQAPGKERELVAAISHGAITYYADSVKGRFTISRDNAKYTVYLQTNSLKREDTAVYYCAAYYIVEYLHGYWGQGTRVTVSS | low polyreactivity
15 | QVQLVESGGGLVQAGGSLRLSCAASGSTFAYNAMGWYRQAPGKERELVAAISWSGGTTYYADSVKGRFTISRDNAKNTVYLQMNSLKPEDTAVYYCAADVYLNRRQRMYYWGQGTQVTVSS | high polyreactivity
16 | QVQLVESGGGLVQAGCSLRLICAASGFIFRTYAMGWYRQAPGKESELVAAISRGGVRTYYADSVKGRFTISRDNAKNTVYLQMNSLKPEDTAVYYCAADDVHGIYDYWGQGTQVTVSS | high polyreactivity
17 | QVQLVESGGGLVQAGGSLRLSCAASGSIFGRYTMGWYRQAPGKERELVAAINRSGGSTSYADSVKGRFTISRDNAKNTVYLQMNSLKPEDTAVYYCNRARSVPQFYGTYGFGYDYWGQGTQVTVSS | low polyreactivity
18 | QVQLVESGGGLVQAGGSLRLSCAASGSTFAVYTMGWYRQAPGKEREMSTSYADSVKGRFTISRDNAKNTVYLQMTCLKPEDTAVYYCNRDFYEFDSNSYRFDYWGQGTQVTVSS | low polyreactivity
19 | QVQLVESGGGLVQAGGSLRLSCAASGRILAWYAMGWYRQAPGKEREFVAGITGSVGSTYYADSVKGRFTISRDKAKNTVYLQMNSLKPEDPAVYYCNKDWDRTSGPKHYYWGQGTQVTVSS | low polyreactivity
20 | QVQLVESGGGLVQAGGSLRLSCAASGSIFGDYAMGWYRQAPGKEREFVAGITRRGGRTYYADSVKGRFTISRDNAKNTVYLQMNSLKPEDTAVYYCNAVYSSSLRSKYDYWGQGTQVTVSS | high polyreactivity
21 | QVQLVESGGGLVQAGGSLRLICAASGFIFSFNAMGWYRQAPGKERELVAAIRRSAGSTYYADSVKGRFTISRDNAKNTVYLQMNSLKPEDTAVYYCATVTRLYRHGYWGQGTQVTVSS | high polyreactivity
22 | QVQLVESGGGLVQAGGSLRLRCAASGSIFKTYAMGWYRQAPRKERELVAAITTSGGRTYYADSVKGRFTISRDNAKYTVYLQMNSLKPEDTAVYYCNADLFPGYVSYPEYDYWGQGTQVTVSS | low polyreactivity

Row | Sequence | polyreactivity (PSR sort gate)
23 | QVQLVESGGGLVQAGGSLRLSCAASGFTLYPYAKGWYRQAPGKARELVAAISWSVGSTRYADSVKGRFTISRDNAKNTVYLQMNSLKPEDTAVYYCAARPHGRFSQLRVDWGQGTQVTVSS | low polyreactivity
24 | QVQLVESGGGLVQAGGSLRLSCAASGRTSGNYAKGWNRQAPGKERELVAAIRYSGSSTFYAESVKGRFTISRDSAKNSVYLQMNSLKPEDTGVYYCARDIRRKGFRYDYWGQGTQVTVSS | high polyreactivity
25 | QVQLVESGGCLDQAGGSLRLSCAASGITFGPYAMGWYSQAPGKERELVAAITWGGGSTYYADSVKGRFTLSRDNAKNTDYLLMNSLKPEDTADYYCNAEGSTTSRYLPYDYWGQGTQVTVSS | low polyreactivity
26 | QVQLVESGGGLVQAGGSLRLSCAASGFIFKHYAMGWYRQAPGKERELVAAITSSGGNTYYADSVKGRFTISRDNAKNTVYLQMNSLKPEDTAVYYCNARFRTLYWGQGTQVTVSS | high polyreactivity
27 | QVQLVESGGGLVQAGGSLRLSCAASGSIFRAYAMGWYRQAPGKERELVAAITNGGGTTYYADSVKGRFTISRDNAKNTVYLQMNSLKPEDTAVYYCAADGAYSYASYDYWGQGTQVTVSS | low polyreactivity
28 | QVQLQESGGGLVQAGGVLRLSCAASGTISGPHVMGWYRQAPGKEREFVAAINDGANTYYADNVKGRFTISRDNAKNTVYLQMNILKPEDTAVYYCAAVFYGDIGHEYWGQGTQVTVSC | low polyreactivity
29 | QVQLVESGGGLVQAGGSLRLSCAASGRIFYYNAMGWYRQAPGKEMELVAAITSGGSTNYADSVKGRFTISRDNAKNTVYLQMNSLKPEDTAVYYCAADYYYYVAGVHYDYWGQGTQVTVSS | low polyreactivity
30 | QVQLVESGGGLVQAGGSLRLSCAASGRTFIRNAMGWYRQAPGKERELVAAITRSGGSTYYADSVKGRFTISRDNAKNTVYFQMNSLKPEDTAVYYCAAQPFYYLVGVPDDYWGQGTHVTVSS | low polyreactivity
31 | QVQLVESGGGLVQAGGSLRLSCAASGRIFLVNAMGWYRQAPGKEREFVAAITDNTGSTYYADSVKGRFTISRDNAKNTVYLQMNSLKPEDTAVYYCAKQRGNKRIGYDSWGQGTQVTVSS | low polyreactivity
32 | QVQLVESGGGLVQAGGSLRLSCAASGSTFRGYVMGWYRQAPGKERELVAAISSGGRTYYADSVKGRFTISRDNAKNTVYLQMNSLKPEDTAVYYCNSNGRDVYYNWAYDYWGQGTQVTVSS | high polyreactivity
33 | QVQLVESGGGLVQAGGSLRLSFAASGIIFGWYAVGWYRQAHGKDRELVAAINIGGSTNYADSVKGRFTISRYNAKNTVYLQMNSLKPEDTADYYCNARTPGYRYGRDYWGQGTQVTVSS | high polyreactivity
34 | QVQLVESGGGLVQAGGSLGLSCAASGSTFGPNAMGWYRQAPGKERELVARITDSGGSTYYADSVKGRFTISRDNAKNTVDLQMNSLKQDDTAVYYCAAEVYLLSRYYTPAYDYWGQGTLVTVSS | low polyreactivity
35 | QVQLVESGGGLVQAGGSLRLSWAASGLIFYDNMGWYRQAPGKERELVASISSSGGSTSYADSVKGRFTISRDNAKNTVYLQMNSLKPEDTAVYYCAAVRRGYKYVYWGQGTQVTVSS | low polyreactivity
36 | QVQLVESGGGLVQAGGSLRLSCAATGSIFYVNAMGWYRQAPGKERELVAVNADSVKGRFTISRDNAKNTVYLQMNSLKPEDTAVYYCAAGVNSTTRIYDYWGQGTQVTVSS | low polyreactivity
37 | QVQLVESGGGLVQAGGSLRLSCAASGSTLGRNAMGWDRQAPGKERELVASITRSGGSTYYADSVKGRFTISRDNAKNTVYLQMNSLKPEDTAVYYCAAEVQGQVGEFDYWGQGTQVTVSS | low polyreactivity
38 | QVQLVESGGGLVQAGGSLRLSSAASGNIFYGYAIGWYRQAPGKERELVARINWSGTRTYYADSVKGRFTISRDNAKNTVYLQMNSLKPEDTAVYYCAADRYRKYYRRYYYWGQGTQVTVSS | high polyreactivity
39 | QVQLVESGGGLVQAGGSLRLSCAASGYTFPKYAMGWYRQAPGKERELVAAITKRGGRTYSADSVKGRFTISRDNAKNTVYLQMNSLKPEDTAVYYCAVDLDGPEYSQVHYDYWGQGTQVTVSS | high polyreactivity
40 | QVQLVESVGGLVQAGGSLRLSCAASGFTFGPYDMGWYRQAPGKERELVAVIIGGDSTNYADSVKGRFTISRDNAKNTVYLQMNSLKPEDTAVYYCAADYIDRVGWMDYWGQGTQVTVSS | low polyreactivity
41 | QVQLVESGGGLVQAGGSLRLSCAASGITFSLYVMGWYRQAPGKERELVAAISTSGGSTYYADSVKGRFTISRDNAKNTVYLQMTSLKPEDTAVYYCAAVYVLSWYVQTYDYWGQGTQVTVSS | low polyreactivity
42 | QVQLVESGGGLVQAGGSLRLSCAASGFTFGENAMGWYRQAPGKDRELVAAITSGDGTSYADSVKGRFTISRDNAKNTVYLQMNSLKPEDTAVYSCAADVNYYQHRLYYWGLGTQVTVSS | low polyreactivity
43 | QVQHVESGGGLVQAGGSLRLSCAASGRTFEVFAMGWYRQAPRKERELVATITYSGGITYYADSVKGRFTISRDKAKNTVYLQMNSLKPEDTAVYYPIGVGGDYDYCGQGTQVTVSS | low polyreactivity
